# From patent US20200317776A1 (published 2020)
# Where a chain is given by its changes, count along the chain named.
# T1: human TREM2 expressed on cells (human, UniProt Q9NZC2 19-230)
# T1 construct: BW5147.G.1.4 cells stably expressing human TREM2 together with Dap12, or endogenous TREM2 of primary human myeloid cells; also called huT2 BW; hTREM2 expressing cell line
# T1 sequence: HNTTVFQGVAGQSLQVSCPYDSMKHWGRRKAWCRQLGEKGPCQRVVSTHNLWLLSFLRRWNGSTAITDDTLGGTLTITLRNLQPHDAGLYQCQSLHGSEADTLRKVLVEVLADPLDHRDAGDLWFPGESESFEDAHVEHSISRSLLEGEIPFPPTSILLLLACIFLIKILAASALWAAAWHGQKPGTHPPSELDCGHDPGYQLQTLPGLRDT
# T2: human TREM2 Fc fusion (entire TREM2 ECD; only one Fc arm fused to TREM2) (human, UniProt Q9NZC2 19-174)
# T2 construct: also called huTREM2-Fc; recombinant hTREM2
# T2 sequence: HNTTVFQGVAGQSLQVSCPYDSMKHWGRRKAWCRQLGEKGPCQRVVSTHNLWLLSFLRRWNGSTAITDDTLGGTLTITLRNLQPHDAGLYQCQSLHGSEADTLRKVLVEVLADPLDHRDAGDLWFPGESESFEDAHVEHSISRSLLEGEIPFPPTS
# T3: cynomolgus monkey TREM2 Fc fusion (entire TREM2 ECD; only one Fc arm fused to TREM2) (cynomolgus monkey, UniProt Q9NZC2 19-174 (human entry))
# T3 construct: also called cyno TREM2-Fc
# T3 chain: T2 sequence with A10E, W60R, L89F, F125V
# B1: AL2p-8 (antibody, V domains shown)
# VH: QVQLVQSGAEVKKPGSSVKVSCKASGYAFSLSWMNWVRQAPGQGLEWMGRIYPGDGDTNYARKFQGRVTITADESTSTAYMELSSLRSEDTAVYYCARLLRNQPGSSYAMDYWGQGTLVTVSS
# VL: GVVMTQTPLSLSVTPGQPASISCRSSQSLIHSNGYTYLHWYLQKPGQSPQLLIYKVSNRRSGVPDRFSGSGSGTDFTLKISRVEAEDVGVYYCSQSTRVPYTFGQGTKLEIK
# notes: Fab and IgG formats under one id
# B2: AL2p-26 (antibody, V domains shown)
# VH: B1 VH with L31S, S32H, D55G, R62Q, F64R, S106E
# VL: B1 VL
# notes: as for B1
# B3: AL2p-29 (antibody, V domains shown)
# VH: B1 VH with L31S, S32Q, R62Q, S106E
# VL: B1 VL with Q27R, I30V, R60F
# notes: as for B1
# B4: AL2p-16 (antibody, V domains shown)
# VH: B1 VH with L31S, S32H, R62Q, Q65R, S106A
# VL: B1 VL with S25T, I30V, R60V
# notes: as for B1
# B5: AL2p-36 (antibody, V domains shown)
# VH: B1 VH with S16A, L31S, G44R, M48I, E74T, T76A, S106A
# VL: DVVMTQSPDSLAVSLGERATINCRSSQSLVHSNGYTYLHWYQQKPGQSPKLLIYKVSNRFSGVPDRFSGSGSGTDFTLTISSLQAEDVAVYYCSQSTRVPYTFGGGTKVEIK
# notes: as for B1
# B6: AL2p-23 (antibody, V domains shown)
# VH: B1 VH with L31S, S32H, D57Q, R62Q, F64R, S106E
# VL: B1 VL with S25T, I30V, R60V
# notes: as for B1
# B7: AL2p-9 (antibody, V domains shown)
# VH: B1 VH with L31R, R62Q, S106A
# VL: B1 VL with S25T, I30V, R60V
# notes: as for B1
# B8: AL2p-35 (antibody, V domains shown)
# VH: B1 VH with S16A, S30W, L31S, G44R, M48I, R62Q, E74T, T76A, S106E, M110H
# VL: B5 VL
# notes: as for B1
# B9: AL2p-15 (antibody, V domains shown)
# VH: B1 VH with L31S, S32H, R62Q, S106E
# VL: B1 VL with Q27S, I30V, R60K
# notes: as for B1
# B10: AL2p-h27 (antibody, human IgG1, V domains shown)
# VH: QVQLVQSGAEVKKPGASVKVSCKASGYAFSSSWMNWVRQAPGQGLEWIGRIYPGDGDTNYNGEFRVRATLTADTSTSTAYMELSSLRSEDTAVYFCARLLRNQPGESYAMDYWGQGTLVTVSS
# VL: B1 VL with G1D, I30V, R60F, V88L, Y92F
# notes: humanized, human IgG1; Fab and IgG formats under one id
# B11: AL2p-h32 (antibody, human IgG1, V domains shown)
# VH: B10 VH with A16S, S77T
# VL: B1 VL with G1D, I30V, R60F, V88L, Y92F
# notes: as for B10
# B12: AL2p-h24 (antibody, human IgG1, V domains shown)
# VH: B10 VH with K12V, V18L, V20I, G62Q, E63K, R65Q, V66G, T117A
# VL: B1 VL with G1D, I30V, R60F, V88L, Y92F
# notes: as for B10
# B13: AL2p-h43 (antibody, human IgG1, V domains shown)
# VH: B10 VH with V18L, G44R, T76A
# VL: B1 VL with G1D, I30V, R60F
# notes: as for B10
# B14: AL2p-h90 (antibody, human IgG1, V domains shown)
# VH: B1 VH with S16A, L31S, G44R, M48I, R62Q, E74T, T76A, S106E
# VL: DVQMTQSPSSLSASVGDRVTITCRSSQSLVHSNGYTYLHWYQQKPGKSPKLLIYKVSNRFSGVPSRFSGSGSGTDFTLTISSLQPEDFATYYCSQSTRVPYTFGGGTKVEIK
# notes: as for B10
# B15: AL2p-h25 (antibody, human IgG1, V domains shown)
# VH: B10 VH with V18L, V20I, F95Y, T117A
# VL: B1 VL with G1D, I30V, R60F, V88L, Y92F
# notes: as for B10
# Target: T1, human TREM2 expressed on cells
# Experiment: FACS, hTREM2 BW cells
# How it was run: (§1)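 Cells were BW5147.G.1.4 stably expressing human TREM2 with Dap12, or human monocyte-derived dendritic cells differentiated 6 days with GM-CSF and IL-4. Antibodies bound 1 h on ice in PBS+2% FBS, then PE anti-human secondary 30 min on ice; flow cytometry read-out as mean fluorescence intensity.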
row,Binder,Kd [nM]
1,B1,1.2
2,B2,1.1
3,B3,1.3
4,B4,1.2
5,B5,1.7
6,B6,1.2
7,B7,1.1
8,B8,3.6
9,B9,2.2

# Target: T1, human TREM2 expressed on cells
# Experiment: FACS, hTREM2 BW cells
# Remark: another data set of the same source
# Description: To examine cell binding of anti-TREM2 antibodies, recombinant, human TREM2-expressing BW5147.G.1.4 cells (ATCC® TIB48™) were established by stably expressing either mouse TREM2 or human TREM2 together with Dap12 using viral infection. Cells were harvested by scraping, washed in PBS, counted and plated on 96-well U bottom plates at 1)(10⁵ cells/well. The plates were spun at 1,400 rpm for 3 minutes and primary anti-TREM2 or control antibodies were added in FACS buffer (PBS H2% FBS) and incubated on ice for one hour. Cells were subsequently centrifuged as before and washed thrice with FACS buffer. Cells were then incubated with anti-human PE conjugated secondary antibody (BD Biosciences) in FACS buffer for 30 minutes on ice. Cells were again washed thrice with FACS buffer and analyzed on a BD FACS Canto. Binding was measured as mean fluorescence intensity in the APC channel.
row,Binder,cell binding (FOB)
1,B10,78
2,B11,81
3,B12,69
4,B13,91
5,B14,126
6,B15,90

# Target: T4, human TREM2/DAP12 fusion protein (human, UniProt O43914 41-113, limits assumed)
# Experiment: cell-based or functional assay
# T4 sequence (O43914 other isoform, or with tags, fused parts or gaps limits assumed): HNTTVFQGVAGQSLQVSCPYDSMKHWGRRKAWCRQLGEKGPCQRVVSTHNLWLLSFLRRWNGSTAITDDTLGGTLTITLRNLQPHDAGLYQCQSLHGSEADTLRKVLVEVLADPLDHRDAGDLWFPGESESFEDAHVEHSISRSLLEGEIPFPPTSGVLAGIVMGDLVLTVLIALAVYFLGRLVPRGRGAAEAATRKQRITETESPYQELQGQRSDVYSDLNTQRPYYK
row,Binder,Soluble luciferase activation at 10 µg/ml Fold over control [fold over control]
1,B10,7.23
2,B11,5.6
3,B12,4.36
4,B13,8.65
5,B14,4.35
6,B15,7.45

# Target: T1, human TREM2 expressed on cells
# Experiment: FACS, human DCs
# How it was run: as §1
row,Binder,MFI [MFI]
1,B1,310
2,B2,296
3,B4,327
4,B5,240
5,B7,322
6,B8,130
7,B9,262

# Target: T4, human TREM2/DAP12 fusion protein
# Experiment: cell-based or functional assay
# Remark: another data set of the same source
Binder,"Luciferase activation soluble 10 nM IgG, FOC [FOC]","Luciferase activation plate bound 33 nM IgG, FOC [FOC]"
B1,2.78,–
B2,2.59,25.9
B3,2.17,26.6
B4,2.6,16.9
B5,2.64,22.7
B6,2.53,29.8
B7,2.62,15.2
B8,2.05,5.15
B9,1.8,7.54

# Target: T1, human TREM2 expressed on cells
# Experiment: cell-based or functional assay
row,Binder,"Survival huDCs plate bound IgG, AUC [AUC]"
1,B1,1.09e+06
2,B2,1.11e+06
3,B3,1.11e+06
4,B4,880000
5,B5,1.14e+06
6,B6,1.11e+06
7,B7,976000
8,B8,453000
9,B9,488000

# Target: T2, human TREM2 Fc fusion (entire TREM2 …)
# Experiment: BLI, Fab, monovalent
# Description: (§2) Briefly, IgG's were loaded on-line onto AHQ sensors. Sensors were equilibrated off-line in assay buffer for 30 minutes and then monitored on-line for 60 seconds for baseline establishment. For avid binding measurement, sensors with loaded IgGs were exposed to 100 nM antigen (human TREM2 Fc fusion using the entire TREM2 ECD; only one Fc arm was fused to TREM2) for 3 minutes, afterwards they were transferred to assay buffer for 3 minutes for off-rate measurement. Monovalent binding measurements were obtained by loading human TREM2 Fe fusion antigens to AHQ sensor and followed by exposure to 100 nM TREM2 antibody Fab. Kinetics data were fit using a 1:1 binding model in the data analysis software provided by ForteBio. Assay was run at room temperature (25° C.).
row,Binder,Kd [nM]
1,B10,120
2,B11,144
3,B12,1150
4,B13,134
5,B14,61.2
6,B15,153

# Target: T2, human TREM2 Fc fusion (entire TREM2 …)
# Experiment: BLI, Fab, monovalent
# Remark: another data set of the same source
row,Binder,Kd [nM]
1,B1,4.01
2,B2,3.15
3,B3,6.38
4,B4,1.83
5,B5,12.1
6,B6,4.35
7,B7,6.44
8,B8,28.4
9,B9,8.85

# Target: T3, cynomolgus monkey TREM2 Fc fusion …
# Experiment: BLI, Fab, monovalent
row,Binder,Kd [nM]
1,B1,3.1
2,B2,2.69
3,B3,6.47
4,B4,1.36
5,B5,7.38
6,B6,4.16
7,B7,5.63
8,B8,24.6
9,B9,8.76

# Target: T2, human TREM2 Fc fusion (entire TREM2 …)
# Experiment: BLI, IgG, avid
# Description: as §2, with “Briefly, IgGs” for “Briefly, IgG's”, “AHQ sensors,” for “AHQ sensors.”, “(human or cynomolgus monkey” for “(human”, “TREM2 Fe” for “TREM2 Fc”, “TREM2 Fc” for “TREM2 Fe”
row,Binder,Kd [nM]
1,B1,0.3
2,B2,0.201
3,B3,0.403
4,B4,0.222
5,B5,0.495
6,B6,0.334
7,B7,0.349
8,B8,1.85
9,B9,0.538
